The text below walks through data of article PMC10302723, “Differential regulation of Shigella Spa47 ATPase activity by a native C-terminal product of Spa33” (Frontiers in Cellular and Infection Microbiology, 2023).

Broadly, the stoichiometry N is a count of units in the complex or per binding partner. Usually Kd stands for the free concentration of one partner at which half of the binding sites on the other are occupied at equilibrium, for simple one-to-one binding.

Data set [1] concerns the molecule itself. Put plainly: AUC; sedimentation velocity of purified His-tagged Spa33C; a single dominant species of 27 ± 3 kDa; monomer to dimer.
For data set [2], the target named is T1, monomeric Spa47 (SEC-isolated) (Shigella, UniProt P0A1C1 1-430).
T1 construct: Spa47, Shigella T3SS ATPase; Same construct as m5 and m8; also called Spa47 monomer; monomeric Spa47 isolate; source: E. coli, purified (chitin column with on-column intein cleavage, anion exchange, SEC isolation of the monomer)
In words: fluorescence polarisation; EGFP-Spa33C (or EGFP as control) held at 100 nM, Spa47 monomer or oligomer titrated 0-1.5 μM (monomer units); single site saturation binding model; concentration at half-maximum change in polarisation. To be noted: both partners purified. Background: Fluorescence polarisation rises when a labelled molecule tumbles more slowly, as on binding a larger partner.

Data set [3] has as its target T2, oligomeric Spa47 (SEC-isolated homo-oligomer) (Shigella, UniProt P0A1C1 1-430).
T2 construct: Spa47, Shigella T3SS ATPase; Same construct as m5 and m7; also called Spa47 oligomer; homo-oligomeric Spa47; source: E. coli, purified (chitin column with on-column intein cleavage, anion exchange, SEC isolation of the oligomer)
The description is as above. The conditions noted are these: both partners purified.

B1: Spa33C containing an N-terminal 6 x histidine tag (domain or fragment)
chain: MNDNNEAKINLSESNGESEHTEVSLALFNYDDINVKVDFILLEKNMTINELKMYVENELFKFPDDIVKHVNIKVNGSLVGHGELVSIEDGYGIEISSWMVKE
notes: Spa33, Shigella flexneri 2457T; Homodimer by SV-AUC (27 ± 3 kDa; dimer with His tag = 27.5 kDa); also called recombinant Spa33C; homo-dimeric Spa33C; source: E. coli, purified (IMAC, SEC); not shown: His6, N-terminal, kept
Consider B1, for which the “stoichiometry N” value in data set [1] was found to be 2.

B2: EGFP-Spa33C fluorescent protein chimera with an N-terminal 6 x histidine tag (domain or fragment)
chain: B1 chain
notes: Spa33, Shigella flexneri 2457T; EGFP is the fluorescent probe of the polarisation assay; Oligomer state of the chimera was not measured (Spa33C with His tag is a homodimer); also called fluorescent Spa33C construct; source: E. coli (pET15b), purified (IMAC, SEC); not shown: EGFP, N-terminal, kept
For the molecule B2, the Kd is 50 ± 7 nM in data set [2] and 80 ± 10 nM in data set [3].
